In series [1] the test system is HeLa Kyoto. The series is described as follows: thermal stability score vs G1/S (z-score of summed log2 fold changes over temperatures); higher = more thermally stable than in G1/S.
Series [2] relates to HeLa Kyoto. The series can be described thus: solubility in G1/S (NP-40 vs SDS abundance) (log2 ratio); higher = more soluble. The following applies: cell cycle stage: G1/S.
Series [3] concerns HeLa Kyoto. The series can be described thus: melting temperature (median over replicates), in situ; higher = more thermally stable.
For series [4], the system named is HeLa Kyoto. The series can be described thus: solubility change mitosis vs G1/S (difference of NP-40 vs SDS log2 ratios) (log2 ratio difference); higher = more soluble in mitosis.
The mark [5] stands for this setting: cell cycle stage: early G1 (4.5 h after nocodazole release).
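Throughout, for melting temperature (median over replicates), in situ: HeLa Kyoto cells synchronized by double thymidine or nocodazole block, proteins quantified by TMT10plex mass spectrometry, three independent biological replicates.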
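Throughout, for solubility change mitosis vs G1/S (difference of NP-40 vs SDS log2 ratios): synchronized HeLa Kyoto cells (double thymidine block for G1/S, nocodazole release for mitosis), protein amounts in NP-40 versus SDS lysates quantified by mass spectrometry, three biological replicates.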
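Throughout, for solubility in G1/S (NP-40 vs SDS abundance): HeLa Kyoto cells arrested at G1/S by double thymidine block, proteins quantified by TMT10plex mass spectrometry in mild NP-40 versus SDS extracts, three biological replicates.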
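Throughout, for thermal stability score vs G1/S (z-score of summed log2 fold changes over temperatures): synchronized HeLa Kyoto cells, proteins quantified by TMT10plex mass spectrometry, three biological replicates, mitosis taken 0.5 h after nocodazole release, G1/S directly after double thymidine block.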

Chain of NCOA3 (chain, as listed by the source): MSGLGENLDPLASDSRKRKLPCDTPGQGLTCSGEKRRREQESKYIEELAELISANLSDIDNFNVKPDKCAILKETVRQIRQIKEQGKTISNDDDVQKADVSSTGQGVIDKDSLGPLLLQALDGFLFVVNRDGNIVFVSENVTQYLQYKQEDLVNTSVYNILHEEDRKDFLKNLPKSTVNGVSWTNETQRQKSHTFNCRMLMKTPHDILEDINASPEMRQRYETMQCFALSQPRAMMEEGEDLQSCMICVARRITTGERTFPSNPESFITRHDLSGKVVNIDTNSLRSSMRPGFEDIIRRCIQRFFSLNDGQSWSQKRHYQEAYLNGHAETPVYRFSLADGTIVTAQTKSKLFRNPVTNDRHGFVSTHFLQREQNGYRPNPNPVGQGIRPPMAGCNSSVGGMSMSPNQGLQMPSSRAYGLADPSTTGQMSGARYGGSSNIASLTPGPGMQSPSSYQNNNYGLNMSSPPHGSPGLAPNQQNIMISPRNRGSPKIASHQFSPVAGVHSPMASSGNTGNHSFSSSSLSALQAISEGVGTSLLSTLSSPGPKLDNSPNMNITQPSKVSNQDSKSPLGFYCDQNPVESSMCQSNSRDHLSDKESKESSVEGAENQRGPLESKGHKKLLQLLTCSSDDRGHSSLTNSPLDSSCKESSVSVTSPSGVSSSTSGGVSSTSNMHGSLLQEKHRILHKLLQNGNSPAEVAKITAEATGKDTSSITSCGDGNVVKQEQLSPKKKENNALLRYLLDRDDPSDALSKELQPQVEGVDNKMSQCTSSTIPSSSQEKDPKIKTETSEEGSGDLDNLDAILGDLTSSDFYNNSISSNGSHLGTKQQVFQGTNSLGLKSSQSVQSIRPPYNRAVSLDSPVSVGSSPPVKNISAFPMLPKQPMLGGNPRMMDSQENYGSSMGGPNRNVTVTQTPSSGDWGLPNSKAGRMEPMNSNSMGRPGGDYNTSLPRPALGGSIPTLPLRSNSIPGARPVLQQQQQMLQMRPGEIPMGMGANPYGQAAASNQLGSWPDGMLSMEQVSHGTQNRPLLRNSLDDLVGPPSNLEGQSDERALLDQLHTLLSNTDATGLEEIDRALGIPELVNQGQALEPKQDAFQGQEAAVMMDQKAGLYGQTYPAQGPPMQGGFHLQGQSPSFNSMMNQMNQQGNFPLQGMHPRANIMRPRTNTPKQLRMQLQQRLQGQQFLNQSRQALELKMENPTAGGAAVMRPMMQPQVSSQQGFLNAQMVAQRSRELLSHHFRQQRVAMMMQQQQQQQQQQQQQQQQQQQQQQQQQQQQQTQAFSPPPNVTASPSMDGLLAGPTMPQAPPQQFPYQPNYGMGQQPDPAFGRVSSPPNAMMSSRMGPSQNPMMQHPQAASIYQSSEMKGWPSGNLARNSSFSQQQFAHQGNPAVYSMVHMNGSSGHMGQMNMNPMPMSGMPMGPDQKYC

With “MTPSQVAFEIRGTLLPGEVFAICGSCDALGNWNPQNAVALLPENDTGESMLWKATIVLSRGVSVQYRYFKGYFLEPKTIGGPCQVIVHKWETHLQPRSITPLESEIIIDDGQFGIHNGVETLDSGWLTCQTEIRLRLHYSEKPPVSITKKKLKKSRFRVKLTLEGLEEDDDDRVSPTVLHKMSNSLEISLISDNEFKCRHSQPECGYGLQPDRWTEYSIQTMEPDNLELIFDFFEEDLSEHVVQGDALPGHVGTACLLSSTIAESGKSAGILTLPIMSRNSRKTIGKVRVDYIIIKPLPGYSCDMKSSFSKYWKPRIPLDVGHRGAGNSTTTAQLAKVQENTIASLRNAASHGAAFVEFDVHLSKDFVPVVYHDLTCCLTMKKKFDADPVELFEIPVKELTFDQLQLLKLTHVTALKSKDRKESVVQEENSFSENQPFPSLKMVLESLPEDVGFNIEIKWICQQRDGMWDGNLSTYFDMNLFLDIILKTVLENSGKRRIVFSSFDADICTMVRQKQNKYPILFLTQGKSEIYPELMDLRSRTTPIAMSFAQFENLLGINVHTEDLLRNPSYIQEAKAKGLVIFCWGDDTNDPENRRKLKELGVNGLIYDRIYDWMPEQPNIFQVEQLERLKQELPELKSCLCPTVSRFVPSSLCGESDIHVDANGIDNVENA [GPCPD1]”, the thermal stability score was -0.29 in the series on HeLa Kyoto [1] (setting [5]) and -0.26 in the series with HeLa Kyoto [1] (cell cycle stage: mitosis). Moreover, the “solubility in G1/S (log2)” value with HeLa Kyoto [2] worked out at 0.0477. Further, the melting temperature with HeLa Kyoto [3] (cell cycle stage: G1/S) was found to be 50 °C; with HeLa Kyoto [3] (cell cycle stage: mitosis), 50.6 °C. Also, the “solubility change mitosis (log2)” value in the series on HeLa Kyoto [4] is -0.12.
On to “MAKRSRGPGRRCLLALVLFCAWGTLAVVAQKPGAGCPSRCLCFRTTVRCMHLLLEAVPAVAPQTSILDLRFNRIREIQPGAFRRLRNLNTLLLNNNQIKRIPSGAFEDLENLKYLYLYKNEIQSIDRQAFKGLASLEQLYLHFNQIETLDPDSFQHLPKLERLFLHNNRITHLVPGTFNHLESMKRLRLDSNTLHCDCEILWLADLLKTYAESGNAQAAAICEYPRRIQGRSVATITPEELNCERPRITSEPQDADVTSGNTVYFTCRAEGNPKPEIIWLRNNNELSMKTDSRLNLLDDGTLMIQNTQETDQGIYQCMAKNVAGEVKTQEVTLRYFGSPARPTFVIQPQNTEVLVGESVTLECSATGHPPPRISWTRGDRTPLPVDPRVNITPSGGLYIQNVVQGDSGEYACSATNNIDSVHATAFIIVQALPQFTVTPQDRVVIEGQTVDFQCEAKGNPPPVIAWTKGGSQLSVDRRHLVLSSGTLRISGVALHDQGQYECQAVNIIGSQKVVAHLTVQPRVTPVFASIPSDTTVEVGANVQLPCSSQGEPEPAITWNKDGVQVTESGKFHISPEGFLTINDVGPADAGRYECVARNTIGSASVSMVLSVNVPDVSRNGDPFVATSIVEAIATVDRAINSTRTHLFDSRPRSPNDLLALFRYPRDPYTVEQARAGEIFERTLQLIQEHVQHGLMVDLNGTSYHYNDLVSPQYLNLIANLSGCTAHRRVNNCSDMCFHQKYRTHDGTCNNLQHPMWGASLTAFERLLKSVYENGFNTPRGINPHRLYNGHALPMPRLVSTTLIGTETVTPDEQFTHMLMQWGQFLDHDLDSTVVALSQARFSDGQHCSNVCSNDPPCFSVMIPPNDSRARSGARCMFFVRSSPVCGSGMTSLLMNSVYPREQINQLTSYIDASNVYGSTEHEARSIRDLASHRGLLRQGIVQRSGKPLLPFATGPPTECMRDENESPIPCFLAGDHRANEQLGLTSMHTLWFREHNRIATELLKLNPHWDGDTIYYETRKIVGAEIQHITYQHWLPKILGEVGMRTLGEYHGYDPGINAGIFNAFATAAFRFGHTLVNPLLYRLDENFQPIAQDHLPLHKAFFSPFRIVNEGGIDPLLRGLFGVAGKMRVPSQLLNTELTERLFSMAHTVALDLAAINIQRGRDHGIPPYHDYRVYCNLSAAHTFEDLKNEIKNPEIREKLKRLYGSTLNIDLFPALVVEDLVPGSRLGPTLMCLLSTQFKRLRDGDRLWYENPGVFSPAQLTQIKQTSLARILCDNADNITRVQSDVFRVAEFPHGYGSCDEIPRVDLRVWQDCCEDCRTRGQFNAFSYHFRGRRSLEFSYQEDKPTKKTRPRKIPSVGRQGEHLSNSTSAFSTRSDASGTNDFREFVLEMQKTITDLRTQIKKLESRLSTTECVDAGGESHANNTKWKKDACTICECKDGQVTCFVEACPPATCAVPVNIPGACCPVCLQKRAEEKP [PXDN]”, for which the thermal stability score with HeLa Kyoto [1] (setting [5]) came out at 3.4; with HeLa Kyoto [1] (cell cycle stage: mitosis), 3.61. Moreover, in the series with HeLa Kyoto [2], the “solubility in G1/S (log2)” value is -0.0223. In addition, the melting temperature worked out at 54 °C in the series on HeLa Kyoto [3] (cell cycle stage: G1/S) and 54.5 °C with HeLa Kyoto [3] (cell cycle stage: mitosis). The “solubility change mitosis (log2)” value with HeLa Kyoto [4] is -0.103.
Consider “MAGDVGGRSCTDSELLLHPELLSQEFLLLTLEQKNIAVETDVRVNKDSLTDLYVQHAIPLPQRDLPKNRWGKMMEKKREQHEIKNETKRSSTVDGLRKRPLIVFDGSSTSTSIKVKKTENGDNDRLKPPPQASFTSNAFRKLSNSSSSVSPLILSSNLPVNNKTEHNNNDAKQNHDLTHRKSPSGPVKSPPLSPVGTTPVKLKRAAPKEEAEAMNNLKPPQAKRKIQHVTWP [C2ORF49]”, for which the thermal stability score with HeLa Kyoto [1] (setting [5]) is -1.3; with HeLa Kyoto [1] (cell cycle stage: mitosis), -1.02. The “solubility in G1/S (log2)” value in the series on HeLa Kyoto [2] stood at 0.348. Also, the melting temperature amounted to 50.3 °C with HeLa Kyoto [3] (cell cycle stage: G1/S) and 51.3 °C in the series with HeLa Kyoto [3] (cell cycle stage: mitosis). For the same substance, the “solubility change mitosis (log2)” value in the series with HeLa Kyoto [4] worked out at 0.015.
On to “MASGNARIGKPAPDFKATAVVDGAFKEVKLSDYKGKYVVLFFYPLDFTFVCPTEIIAFSNRAEDFRKLGCEVLGVSVDSQFTHLAWINTPRKEGGLGPLNIPLLADVTRRLSEDYGVLKTDEGIAYRGLFIIDGKGVLRQITVNDLPVGRSVDEALRLVQAFQYTDEHGEVCPAGWKPGSDTIKPNVDDSKEYFSKHN [PRDX2]”, for which the figures for the thermal stability score in the series on HeLa Kyoto [1] (setting [5]) and with HeLa Kyoto [1] (cell cycle stage: mitosis) were -3.24 and -3.32, respectively. In the series on HeLa Kyoto [2], the “solubility in G1/S (log2)” value is 0.354. Also, the melting temperature stood at 55 °C in the series on HeLa Kyoto [3] (cell cycle stage: G1/S) and 55.1 °C in the series with HeLa Kyoto [3] (cell cycle stage: mitosis). The “solubility change mitosis (log2)” value with HeLa Kyoto [4] turned out to be 0.0464.
As for “MDFEDDYTHSACRNTYQGFNGMDRDYGPGSYGGMDRDYGHGSYGGQRSMDSYLNQSYGMDNHSGGGGGSRFGPYESYDSRSSLGGRDLYRSGYGFNEPEQSRFGGSYGGRFESSYRNSLDSFGGRNQGGSSWEAPYSRSKLRPGFMEDRGRENYSSYSSFSSPHMKPAPVGSRGRGTPAYPESTFGSRNYDAFGGPSTGRGRGRGHMGDFGSIHRPGIVVDYQNKSTNVTVAAARGIKRKMMQPFNKPSGTFIKKPKLAKPMEKISLSKSPTKTDPKNEEEEKRRIEARREKQRRRREKNSEKYGDGYRMAFTCSFCKFRTFEEKDIELHLESSSHQETLDHIQKQTKFDKVVMEFLHECMVNKFKKTSIRKQQTNNQTEVVKIIEKDVMEGVTVDDHMMKVETVHCSACSVYIPALHSSVQQHLKSPDHIKGKQAYKEQIKRESVLTATSILNNPIVKARYERFVKGENPFEIQDHSQDQQIEGDEEDEEKIDEPIEEEEDEDEEEEAEEVGEVEEVEEVEEVREGGIEGEGNIQGVGEGGEVGVVGEVEGVGEVEEVEELEEETAKEEPADFPVEQPEEN [ZNF326]”, the figures for the thermal stability score with HeLa Kyoto [1] (setting [5]) and with HeLa Kyoto [1] (cell cycle stage: mitosis) were 3.18 and 7.29, respectively. Moreover, the “solubility in G1/S (log2)” value in the series with HeLa Kyoto [2] is -0.456. The results for the melting temperature in the series with HeLa Kyoto [3] (cell cycle stage: G1/S) and in the series on HeLa Kyoto [3] (cell cycle stage: mitosis) were 47 °C and 49.1 °C, respectively. Further, in the series on HeLa Kyoto [4], the “solubility change mitosis (log2)” value worked out at 0.239.
On to NCOA3, for which the thermal stability score is 0.836 in the series on HeLa Kyoto [1] (setting [5]) and 1.22 with HeLa Kyoto [1] (cell cycle stage: mitosis). In the series with HeLa Kyoto [2], the “solubility in G1/S (log2)” value came to 0.355. The results for the melting temperature in the series on HeLa Kyoto [3] (cell cycle stage: G1/S) and in the series on HeLa Kyoto [3] (cell cycle stage: mitosis) were 51.2 °C and 49.8 °C, respectively. The “solubility change mitosis (log2)” value in the series with HeLa Kyoto [4] is -0.0688.

The values above are taken from the supplement of paper PMC5998384.
